This assay addresses myosin VI (mouse (endogenous in mouse brain)) (UniProt Q64331). Put plainly: co-IP.
Sequence of UniProt Q64331 (Q64331 whole entry): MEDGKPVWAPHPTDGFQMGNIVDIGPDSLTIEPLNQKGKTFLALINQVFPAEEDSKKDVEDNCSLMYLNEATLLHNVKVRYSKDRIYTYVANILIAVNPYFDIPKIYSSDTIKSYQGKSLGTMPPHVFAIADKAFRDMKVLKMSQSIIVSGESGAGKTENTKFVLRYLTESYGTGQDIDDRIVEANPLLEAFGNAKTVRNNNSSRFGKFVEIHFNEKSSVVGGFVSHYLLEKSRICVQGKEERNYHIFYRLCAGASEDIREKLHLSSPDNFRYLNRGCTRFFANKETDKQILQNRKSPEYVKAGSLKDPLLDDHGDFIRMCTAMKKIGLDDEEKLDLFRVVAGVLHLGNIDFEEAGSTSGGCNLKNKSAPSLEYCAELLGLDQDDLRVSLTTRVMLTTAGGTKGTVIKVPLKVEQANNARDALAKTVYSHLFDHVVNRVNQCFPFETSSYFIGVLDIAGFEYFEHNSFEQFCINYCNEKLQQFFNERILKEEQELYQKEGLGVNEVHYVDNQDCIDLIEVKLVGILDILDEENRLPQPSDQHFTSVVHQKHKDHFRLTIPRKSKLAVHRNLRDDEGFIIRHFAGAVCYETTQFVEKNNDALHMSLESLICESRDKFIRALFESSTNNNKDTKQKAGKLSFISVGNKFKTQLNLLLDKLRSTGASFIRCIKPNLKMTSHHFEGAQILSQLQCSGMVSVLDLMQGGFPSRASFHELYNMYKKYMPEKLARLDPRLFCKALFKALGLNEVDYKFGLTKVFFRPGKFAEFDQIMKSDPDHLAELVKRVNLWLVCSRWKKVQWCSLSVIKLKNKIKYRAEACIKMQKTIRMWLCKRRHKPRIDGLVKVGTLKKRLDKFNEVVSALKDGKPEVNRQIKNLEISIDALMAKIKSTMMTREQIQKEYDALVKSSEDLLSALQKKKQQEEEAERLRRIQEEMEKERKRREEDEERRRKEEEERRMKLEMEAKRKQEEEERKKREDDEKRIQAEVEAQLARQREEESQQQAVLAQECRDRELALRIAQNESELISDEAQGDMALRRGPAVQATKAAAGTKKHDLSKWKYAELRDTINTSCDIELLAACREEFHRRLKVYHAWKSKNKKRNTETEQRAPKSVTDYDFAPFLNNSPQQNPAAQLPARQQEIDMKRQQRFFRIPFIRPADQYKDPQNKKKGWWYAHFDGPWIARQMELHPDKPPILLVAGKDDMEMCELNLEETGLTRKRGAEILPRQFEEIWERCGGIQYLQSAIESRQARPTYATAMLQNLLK

“dynein intermediate chain (from UniProt O88485 1-628) (natural protein)”: the DIC coprecipitation normalized to myosin VI immunoprecipitation (wt lysate) is 1.44.
